# B1: Beta-secretase 1 (Homo sapiens), P56817 (parent)
# chain: MAQALPWLLLWMGAGVLPAHGTQHGIRLPLRSGLGGAPLGLRLPRETDEEPEEPGRRGSFVEMVDNLRGKSGQGYYVEMTVGSPPQTLNILVDTGSSNFAVGAAPHPFLHRYYQRQLSSTYRDLRKGVYVPYTQGKWEGELGTDLVSIPHGPNVTVRANIAAITESDKFFINGSNWEGILGLAYAEIARPDDSLEPFFDSLVKQTHVPNLFSLQLCGAGFPLNQSEVLASVGGSMIIGGIDHSLYTGSLWYTPIRREWYYEVIIVRVEINGQDLKMDCKEYNYDKSIVDSGTTNLRLPKKVFEAAVKSIKAASSTEKFPDGFWLGEQLVCWQAGTTPWNIFPVISLYLMGEVTNQSFRITILPQQYLRPVEDVATSQDDCYKFAISQSSTGTVMGAVIMEGFYVVFDRARKRIGFAVSACHVHDEFRTAAVEGPFVTLDMEDCGYNIPQTDESTLMTIAYVMAAICALFMLPLCLMVCQWRCLRCLRQQHDDFADDISLLK
# partner: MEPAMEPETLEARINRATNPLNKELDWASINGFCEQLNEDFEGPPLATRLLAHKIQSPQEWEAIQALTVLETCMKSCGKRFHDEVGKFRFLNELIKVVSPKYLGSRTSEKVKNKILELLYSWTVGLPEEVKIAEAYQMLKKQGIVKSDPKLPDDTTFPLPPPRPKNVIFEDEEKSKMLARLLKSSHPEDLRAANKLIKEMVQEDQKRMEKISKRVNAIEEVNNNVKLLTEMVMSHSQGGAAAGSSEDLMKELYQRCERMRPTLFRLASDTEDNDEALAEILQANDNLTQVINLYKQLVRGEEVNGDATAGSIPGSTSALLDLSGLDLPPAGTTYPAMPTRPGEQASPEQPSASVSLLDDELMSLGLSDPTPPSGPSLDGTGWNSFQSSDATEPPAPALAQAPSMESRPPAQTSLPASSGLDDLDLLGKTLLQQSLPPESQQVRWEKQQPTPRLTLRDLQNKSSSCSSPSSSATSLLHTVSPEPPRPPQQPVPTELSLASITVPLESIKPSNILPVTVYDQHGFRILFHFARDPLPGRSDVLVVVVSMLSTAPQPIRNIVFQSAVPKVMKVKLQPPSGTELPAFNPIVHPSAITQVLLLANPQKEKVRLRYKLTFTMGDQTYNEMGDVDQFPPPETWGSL
# Variants of: B1
# Conditions: with gga1_human GGA1, Q9UJY5
row,effect of a mutation on the interaction,Variant
1,decreasing interaction strength,S498A
2,with no effect,S498D
